How the values were obtained:
[1] = biological target: T1, StrepII-tagged Mesothelin (human mesothelin isoform 2, NP_037536, with C-terminal strepII-tag) (human, UniProt Q13421-1 296-606, limits assumed); test: ELISA of 293T supernatant on coated Mesothelin, divided by the IgG titer from a sandwich ELISA
T1 construct: also called Mesothelin-strep; soluble antigen
Description: (§1) Antigen-binding analysis by ELISA was performed by coating of Nunc-Immuno MaxiSorp 96-well plates (Thermo Scientific, Waltham, USA) with antigen diluted in coating buffer (100 mM bicarbonate/carbonate buffer) over night at 4° C. For sandwich ELISA, plates were coated with 2 μg/ml AffiniPure F(ab′)2 fragment donkey anti-human IgG (Jackson Immunoresearch, West Grove, USA) diluted in coating buffer over night at 4° C. After coating, plates were washed twice with PBS/0.05% Tween-20 (PBS-T), blocked with PBS-T containing 3% bovine serum albumin (BSA) (Carl Roth, Karlsruhe, Germany) for 1 hour at 37° C. and washed again 5 times with PBS/T. L11 clone supernatants were pre-diluted 3-fold, while supernatants from 293T cells were pre-diluted 50-fold. Parental mAbs diluted to 0.5 μg/ml were used to generate standard curves. 3.5-fold serial dilutions of samples were added and plates were incubated for 1 hour at 37° C. After 5 washes with PBS/T, HRPO-conjugated F(ab)2 anti-human FC-gamma (Jackson Immunoresearch, West Grove, USA) was added at 10′000-fold dilution in PBS/T containing 1% BSA, and plates were incubated for 1 hour at 37° C. Finally, plates were washed 5 times with PBS/T and 50 μl of Sigmafast OPD Peroxidase substrate (Sigma-Aldrich, St. Louis, USA) were added. Reactions were stopped by adding 50 μl of 2M H₂SO₄. Absorption was measured at 490 nm. OD50 values of standards with known concentrations and samples determined by 4-point curve fitting models were used to calculate EC50.
(§2) FIG. 10B Deconvolution and validation of recovered sequences. All possible combinations of VH/VL pairs per clone along with the parental pair as a control were transiently transfected into 293T cells. Cell clones and supernatants were analysed for antigen-binding and IgG titer by ELISA as described in FIG. 4D. Ratios of antigen-binding/IgG titers were determined to obtain antigen binding values normalized to IgG content in supernatants (Meso-binding/IgG). Normalized binding is also shown in relation to parental mAb (binding % of parental).

[2] = biological target: T1, StrepII-tagged Mesothelin (human …); test: ELISA of 293T supernatant on coated Mesothelin, normalized to IgG titer and given relative to parental mAb MN
Description: as §1, §2

[3] = biological target: T1, StrepII-tagged Mesothelin (human …); test: SPR (Biacore T200), mAb from 293T supernatant captured by anti-human Fc-gamma IgG, Mesothelin-strep 10 to 1.25 nM as analyte, 25 °C, 1:1 model
Description: (§3) Table 1. Affinities of parental mouse mAb MN and humanized versions thereof. To evaluate the binding strength (affinity) of the generated humanized monoclonal antibodies (mAbs), and to compare affinites with parental mAbs, surface plasmon resonance (SPR) measurements were conducted, a biophysical method to accurately determine affinity. SPR was performed using a Biacore T200 instrument (GE Healthcare, Buckinghamshire, UK) and data was evaluated using Biacore Evaluation T200 V2.0 software. To capture mAbs, goat a-human Fc-gamma-specific IgG (Jackson ImmunoResearch, #109-005-098) was covalently immobilized on a CMS chip (GE Healthcare, # BR-1005-30).
FIG. 10C Isoaffinity plot showing association (kₐ) and dissociation constants (kd) as determined by surface plasmon resonance (SPR). The same supernatants as described in (B) were used for the analysis. Diagonal lines represent equal affinities.

[4] = biological target: T1, StrepII-tagged Mesothelin (human …); test: SPR (Biacore T200), mAb captured by anti-human Fc-gamma IgG (ligand level 217.8 RU), Mesothelin-strep 10 to 1.25 nM as analyte, 25 °C, 1:1 model; Chi2 0.151 RU2
Description: as §3
(§4) Mesothelin-strep was diluted in running buffer using 2-fold serial dilutions ranging from 10 nM to 1.25 nM. Association was measured at a flow of 30 μl/min for 120 s, and dissociation was followed for 1000 s. All measurements were performed at 25° C. All curves were fitted using a 1:1 binding model with RI=0. Regeneration was done for 90 s using 100 mM H3PO4 at a flow of 30 μl/min.

[5] = biological target: T1, StrepII-tagged Mesothelin (human …); test: SPR (Biacore T200), mAb captured by anti-human Fc-gamma IgG (ligand level 143.6 RU), Mesothelin-strep 10 to 1.25 nM as analyte, 25 °C, 1:1 model; Chi2 0.100 RU2
Description: as §3, §4

[6] = biological target: T1, StrepII-tagged Mesothelin (human …); test: SPR, Biacore T200, mAb captured by anti-human Fc, Mesothelin-strep as analyte
[7] = biological target: T1, StrepII-tagged Mesothelin (human …); test: SPR (Biacore T200), mAb captured by anti-human Fc-gamma IgG (ligand level 106.5 RU), Mesothelin-strep 10 to 1.25 nM as analyte, 25 °C, 1:1 model; Chi2 0.052 RU2
Description: as §3, §4

[8] = biological target: T1, StrepII-tagged Mesothelin (human …); test: SPR (Biacore T200), mAb captured by anti-human Fc-gamma IgG (ligand level 90.0 RU), Mesothelin-strep 10 to 1.25 nM as analyte, 25 °C, 1:1 model; Chi2 0.075 RU2
Description: as §3, §4

T1 sequence (Q13421 other isoform, or with tags, fused parts or gaps limits assumed): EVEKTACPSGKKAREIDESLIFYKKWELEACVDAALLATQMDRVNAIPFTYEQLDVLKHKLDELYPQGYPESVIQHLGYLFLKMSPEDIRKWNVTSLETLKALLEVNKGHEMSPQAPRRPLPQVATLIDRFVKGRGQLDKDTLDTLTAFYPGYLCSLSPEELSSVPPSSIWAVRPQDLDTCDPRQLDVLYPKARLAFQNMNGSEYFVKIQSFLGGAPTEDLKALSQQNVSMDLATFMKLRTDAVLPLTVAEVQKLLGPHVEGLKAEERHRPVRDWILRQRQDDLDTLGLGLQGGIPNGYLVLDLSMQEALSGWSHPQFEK

Binder | Meso-binding/IgG [1] | binding (% of parental) [2] | Kd [3] | koff [3] | kon [3] | Kd [4] | Kd [5] | Kd [6] | Kd [7] | Kd [8]
huMN5-2 (antibody, V domains shown, No sheet says in words that huMN5a is huMN5-2) VH: QVQLQQSGAELVKPGASLKLSCKASGYTFTSYWMHWVRQAPGQGLEWIGAIHPNSDNTIYYQKFKSRFTITVDKSTSTAYMQLSSLTSEDTAVYYCAIIITPVVPKFDYWGQGTTVTVSS VL: DIVMTQSSSFMSASVGDRVSITCKASHDVGTSLAWYQQKPGQSPKLLIYWASTRQTGVPDRFSGSGSGTDFTLTISSVQSEDVATYFCQQYSSYPLTFGQGTKLEIK | 0.79 | 84.9 % of parental | 176 pM | 0.000218 s⁻¹ | 1.24e+06 M⁻¹ s⁻¹ | 176 pM |  |  |  | 
huMN3-1 (antibody, V domains shown) VH: QVQLQQSGAELVKPGASMKLSCKASGYTFTSYWMHWVRQAPGQGLEWIGAIHPNSDNTIYYQKFKSRVTLTVDKSISTAYMQLSSLTSEDTAVYYCAIIITPVVPKFDYWGQGTTVTVSS VL: DIQMTQSPSFLSASVGDRVTITCRASHDVGTSLAWYQQKPGQAPKLLIYWASTLQTGVPSRFSGSGSGTEFTLTISSLQPEDFATYYCQQYSSYPLTFGPGTTVDMK | 1.04 | 111 % of parental | 193 pM | 0.000274 s⁻¹ | 1.42e+06 M⁻¹ s⁻¹ |  |  |  |  | 193 pM

Further lines, results first:

Meso-binding/IgG [1] | binding (% of parental) [2] | Kd [3] | koff [3] | kon [3] | Kd [4] | Kd [5] | Kd [6] | Kd [7] | Kd [8] | Binder
0.77 | 82.4 % of parental | 114 pM | 0.000115 s⁻¹ | 1.01e+06 M⁻¹ s⁻¹ |  | 114 pM |  |  |  | huMN5-3 (antibody, V domains shown, No sheet says in words that huMN5b is huMN5-3) VH: QVQLQQSGAELVKPGASLKLSCKASGYTFTSYWMHWVRQAPGQGLEWIGAIHPNSDNTIYYQKFKSRFTITVDKSTSTAYMQLSSLTSEDTAVYYCAIIITPVVPKFDYWGQGTTVTVSS VL: DIVMTQSPDSLAVSLGERATITCKSSHDVGTSLAWYQQKPGQPPKLLIYWASTRESGVPDRFSGSGSGTDFTLTISSLQAEDVAVYYCQQYSSYPLTFGQGTKLEIK
0.94 | 100 % of parental |  | 6.81e-05 s⁻¹ | 1.31e+06 M⁻¹ s⁻¹ |  |  | 51 pM | 50 pM |  | parental anti-Mesothelin mouse mAb MN, produced as chimeric full-length IgG1 antibody with human constant regions (antibody, V domains shown, also called VH-MN (parental mouse); parental chimeric antibody) VH: QVQLQQPGAELVKPGASMKLSCKASGYTFTSYWMHWVKQRPGQGLEWIGMIHPNSDNTIYYEKFKSKATLTVDKSSSTAYMQLSSLTSEDSAVYYCAIIITPVVPKFDYWGQGTTLTVSS VL: DIVMTQSHQFMSTSVGDRVSVTCKASHDVGTSVAWYQQKPGQSPKLLIYWASTRHTGVPDRFTGSGSGTDFTLTISNVQSEDLADYFCQQYSSYPLTFGAGTKLELK

Reference: patent publication US20190112385A1 (NBE THERAPEUTICS, published 2019)
